Assay results reported in patent US20110142842A1 (published 2011).

T1: CD20 peptide on HLA-A*02:01 (human)
T1 peptide: SLFLGILSV

B1: TCR of SEQ ID NOs 177 and 150 (CDR3 alpha and CDR3 beta) (TCR)
alpha TRAV30 J-57 CDR3: GTQGGSEKLV
beta TRBV19 J2-7 CDR3: ATAPGLSYEQY
B2: TCR of SEQ ID NOs 181 and 155 (CDR3 alpha and CDR3 beta) (TCR)
alpha TRAV24 J-28 CDR3: AFMPGAGSYQLT
beta TRBV4-2 J2-7 CDR3: ASSQGLTYEQY
B3: TCR of SEQ ID NOs 180 and 154 (CDR3 alpha and CDR3 beta) (TCR)
alpha TRAV5 J-23 CDR3: AEWGQGGKLI
beta TRBV12-4 J2-7 CDR3: ASSPGLTYEQY
B4: TCR of SEQ ID NOs 179 and 153 (CDR3 alpha and CDR3 beta) (TCR)
alpha TRAV38-2/DV8 J-43 CDR3: AYASFDMR
beta TRBV13 J2-3 CDR3: ASSLGSANTQY
B5: TCR of SEQ ID NOs 175 and 148 (CDR3 alpha and CDR3 beta) (TCR)
alpha TRAV12-2 J-33 CDR3: AGIMDSNY
beta TRBV4-2 J2-7 CDR3: ASSHGNGYEQY

Biological target: T1, CD20 peptide on HLA-A*02:01
Experiment: multimer staining

binding result | Binder
recognises | B1
recognises | B2
recognises | B3
recognises | B4
recognises | B5
